First the molecules themselves.
B1: c-Met 11978 Fab (Fab, V domains shown)
VH: not shown
VL: NFMLTQPHSVSESPGKTVTISCTRSSGSIAFDYVQWYQQRPGSAPTTVIYEDNQRPSGVPDRFSASIDSSSNSASLTISALKTEDEADYYCQSYDNSNSWVFGGGTKLTVLG
notes: VH and VL limits counted as for the IgG
B2: c-Met 12119 Fab (Fab, V domains shown)
VH: QLQLQESGPGLVKPSGTLSLTCAVSGGSISTSDWWSWVRRPPGKGLEWIGEIYHSGSTNYHPSLKSRVTISLDKSKNQFSLKLSSVTAADTAVYYCAREGGHSGSYPLDYWGRGTLVTVSS
VL: NFMLTQPHSVSESPGKTVTISCARSSGSIASNYVQWYQQRPGSSPTTLIYEDRQRPSGVPDRFSGSIDSSSNSASLTISGLKTEDEADYYCQSYDSSDHVVFGGGTKLTVLG
notes: VH and VL limits counted as for the IgG; also called Fab fragment derived from c-Met antibody 12119
B3: c-Met 11986 Fab (Fab, V domains shown)
VH: EVQLVQSGAEVKKPGATLKVSCKVSAYTFTDYSMHWVQQAPGKGLKWMGLIDLEDGNTIYAEEFQDRVTITADTSTDTAYMDLSSLRSEDTAVFYCAISPLRGLTADVFDVWGQGTLVTVSS
VL: QSALTQPASASGSPGQSITISCTGTSSDIGRYDFVSWYQRQPGKAPKLMIYDVINRPSGVSSRFSGSKSGNTASLTISGLQAEDEADYYCSSYAGSTTLYVFGTGTKLTVLG
notes: as for B1
B4: c-Met 12075 Fab (Fab, V domains shown)
VH: QVQLVQSGPEVKKPGASVEVSCKASGYTFTGDYMHWVRQAPGQGPEWMGWINPQTGVTKYAQKFQGRVTMARDTSINTAYMELRGLRSDDTAVYYCVREDHNYDLWSAYNGLDVWGQGTLVTVSS
VL: QSVLTQPPSVSAAPGQKVTISCSGSSSNIGNNHVSWYQQLAGTAPKLLIFDNDKRPSGIPDRFSGSKSGTSATLGITGLQTGDEADYYCGTWDKSPTDIYVFGSGTKLTVLG
notes: VH and VL limits counted as for the IgG; also called Fab fragment derived from c-Met antibody 12075
B5: c-Met IgG antibody 11978 (antibody, V domains shown)
VH: not shown
VL: B1 VL
notes: IgG of scFv PGIA-1-A8; also called IgG of scFv PGIA-01-A8 (PGIA-1-A8)
B6: c-Met IgG antibody 12119 (antibody, V domains shown)
VH: B2 VH
VL: B2 VL
notes: IgG of scFv PGIA-5-A1; also called 12119 IgG; IgG of scFv PGIA-05-A1 (PGIA-5-A1)
B7: c-Met IgG antibody 12075 (antibody, V domains shown)
VH: B4 VH
VL: B4 VL
notes: IgG of scFv PGIA-3-A11; also called 12075 IgG; IgG of scFv PGIA-03-A11 (PGIA-3-A11)
B8: c-Met IgG antibody 11994 (antibody, V domains shown)
VH: B2 VH with L2V, R113K
VL: NFMLTQPHSVSESPGKTVTISCTRSSGSIASNYVQWYQQRPGSSPTTVIYEDNQRPSGVPDRFSGSIDSSSNSASLTISGLKTEDEADYYCQSYDSSNQGVVFGGGTKLTVLG
notes: IgG of scFv PGIA-3-A9; also called 11994 IgG; 11994-50
B9: NK4-6His (recombinant NK4, CHO DG44/pPHA27965) (ligand)
chain: QRKRRNTIHEFKKSAKTTLIKIDPALKIKTKKVNTADQCANRCTRNKGLPFTCKAFVFDKARKQCLWFPFNSMSSGVKKEFGHEFDLYENKDYIRNCIIGKGRSYKGTVSITKSGIKCQPWSSMIPHEHSFLPSSYRGKDLQENYCRNPRGEEGGPWCFTSNPEVRYEVCDIPQCSEVECMTCNGESYRGLMDHTESGKICQRWDHQTPHRHKFLPERYPDKGFDDNYCRNPDGQPRPWCYTLDPHTRWEYCAIKTCADNTMNDTDVPLETTECIQGQGEGYRGTVNTIWNGIPCQRWDSQYPHEHDMTPENFKCKDLRENYCRNPDGSESPWCFTTDPNIRVGYCSQIPNCDMSHGQDCYRGNGKNYMGNLSQTRSGLTCSMWDKNMEDLHRHIFWEPDASKLNENYCRNPDDDAHGPWCYTGNPLIPWDYCPISRCEGDTTPTIVHHHHHH
notes: domain: NK4; also called NK4-His
B10: NK4-Elastase (ligand, UniProt P14210 32-478, looked up)
chain: QRKRRNTIHEFKKSAKTTLIKIDPALKIKTKKVNTADQCANRCTRNKGLPFTCKAFVFDKARKQCLWFPFNSMSSGVKKEFGHEFDLYENKDYIRNCIIGKGRSYKGTVSITKSGIKCQPWSSMIPHEHSFLPSSYRGKDLQENYCRNPRGEEGGPWCFTSNPEVRYEVCDIPQCSEVECMTCNGESYRGLMDHTESGKICQRWDHQTPHRHKFLPERYPDKGFDDNYCRNPDGQPRPWCYTLDPHTRWEYCAIKTCADNTMNDTDVPLETTECIQGQGEGYRGTVNTIWNGIPCQRWDSQYPHEHDMTPENFKCKDLRENYCRNPDGSESPWCFTTDPNIRVGYCSQIPNCDMSHGQDCYRGNGKNYMGNLSQTRSGLTCSMWDKNMEDLHRHIFWEPDASKLNENYCRNPDDDAHGPWCYTGNPLIPWDYCPISRCEGDTTPTIV
notes: domain: kringle to kringle 4 fragment

Numbering of substitutions follows the chain as printed. Values joined by “and” are separate entries in the source; they are usually repeats but may differ in a detail not shown here. Equal values may be shown once.

Broadly, the IC50 is the midpoint of a concentration-inhibition curve. Read a low IC50 as greater potency. The term koff denotes a measure of how fast the partners let go of each other. A low value points to slow dissociation. In general, kon refers to the second-order rate constant of association. A lower kon goes with slower complex formation.

The first assay concerns the target T1, c-Met/Fc Chimera (R&D Systems, catalog # 358-MT-100) (human, UniProt P08581 25-932).
T1 construct: extracellular domain; Bought reagent; also called human c-Met-Fc fusion protein; recombinant c-Met protein; Fc part of the bought chimera not given
Put plainly: competition ELISA: displacement of biotinylated HGF from plate-coated c-Met/Fc chimera, Fab, n = 2. As to the method: (§1) 96-well Fluoronunc plates were coated with 50 ul of 0.5 ug/ml c-Met/Fc Chimera (R&D Systems, Minneapolis Minn., catalog # 358-MT-100) in phosphate buffered saline (PBS) and the plates were incubated overnight at room temperature. Wells were washed three times with washing buffer (PBS+0.1% Tween 20), blotting the plates on paper towels between each wash. Nonspecific binding in the wells was blocked by the addition of 250 ul of blocking buffer (3.0% milk (Carnation) in PBS) to each well and incubated at room temperature for two hours.
(§2) The c-Met antibodies were diluted in reagent buffer (PBS, 0.5% BSA, 0.05% Tween-20) and titrations were performed in 96 well polypropylene plates. Biotinylated HGF (0.4 ug/ml) (R&D Systems, biotinylated with Pierce #21335 as per manufacturer's instructions) was added to each well. 50 ul of the dilutions were transferred into the Fluoronunc plates containing human c-Met-Fc fusion protein (R&D Systems, #) and the plates were incubated for two hours at room temperature. The plates were washed three times with wash buffer and blotted onto paper towels. 50 ul of europium-labeled Streptavidin (Wallac Perkin Elmer) diluted 1:1000 in Delfia assay buffer (Wallac Perkin Elmer) was added per well and the plates were incubated for one hour at room temperature. The plates were washed seven times with Delfia wash buffer (Tris buffered saline (TBS) supplemented with 0.1% Tween-20) and blotted onto paper towels. 100 ul Delfia enhancer solution (Wallac Perkin Elmer) was added to each well and the plates incubated for 5 minutes on a plate shaker at room temperature. Plates were read on a fluorescence plate reader and analyzed using GraphPad Prism software (GraphPad Software, San Diego, Calif.).
(§3) C-Met antibodies 1A3.3.13 (#HB-11894, ATCC Hybridoma) and 5D5.11.6 (#HB-11895, ATCC Hybridoma) were used as positive controls. MOPC-21 (#M-7894, Sigma) was used as an IgG isotype control and HB-94 (#HB-94, ATCC Hybridoma) was converted into a Fab fragment and used as a Fab isotype control. NK4-Elastase is a kringle to kringle 4 fragment resulting from digesting intact HGF purified from S-114 cells with elastase (Date et al., FEBS Lett. 420:1-6 ([…]).
For orientation: In an ELISA, binding on a coated surface is turned into a signal by an enzyme label.
Regarding B1, the IC50 is 65.9 nM and > 125 nM.

B2: the half-maximal inhibitory concentration (IC50) stood at 10.7 nM.

Molecule B3 registered an IC50 of 80 nM.

Regarding B4, the IC50 was above 125 nM.

The target in the next assay is c-Met (endogenous, on human cell lines 184B5, HCT-116, DU-145 and NCI H441) (human, UniProt P08581 25-1390). Put plainly: cell-based or functional assay.
Take B5: the “scatter assay on DU-145 cells, mean object area, agonist (alone), 100 nM IgG; the smaller the number, the more scattering” value came out at 459 mean object area and the “scatter assay on DU-145 cells, mean object area, antagonist (w/30 pM HGF), 100 nM IgG; the smaller the number, the more scattering” value came to 372 mean object area.

Take B6: the “scatter assay on DU-145 cells, mean object area, agonist (alone), 100 nM IgG; the smaller the number, the more scattering” value is 285 mean object area and the “scatter assay on DU-145 cells, mean object area, antagonist (w/30 pM HGF), 100 nM IgG; the smaller the number, the more scattering” value was 293 mean object area.

As to B7, the “scatter assay on DU-145 cells, mean object area, agonist (alone), 100 nM IgG; the smaller the number, the more scattering” value is 318 mean object area and the “scatter assay on DU-145 cells, mean object area, antagonist (w/30 pM HGF), 100 nM IgG; the smaller the number, the more scattering” value came out at 289 mean object area.

In another assay the target is T1, c-Met/Fc Chimera (R&D Systems, catalog …). Put plainly: competition ELISA: displacement of biotinylated HGF from plate-coated c-Met/Fc chimera, IgG, n = 2. Here is the method:
as §1, §2, §3
In the case of B5, the half-maximal inhibitory concentration (IC50) was determined as 0.84 nM.

On to B6, for which the IC50 was 0.64 nM.

For the molecule B8, the IC50 is 0.58 nM.

For B7, the IC50 was determined as 2.55 nM.

Another assay shares this target. Put plainly: competition ELISA: displacement of biotinylated HGF from plate-coated c-Met/Fc chimera; value stands in the Fab column, n = 2. As to the method:
as §1
The c-Met antibodies were diluted in reagent buffer (PBS, 0.5% BSA, 0.05% Tween-20) and titrations were performed in 96 well polypropylene plates. Biotinylated HGF (0.4 ug/ml) (R&D Systems, biotinylated with Pierce #21335 as per manufacturer's instructions) was added to each well. 50 ul of the dilutions were transferred into the Fluoronunc plates containing human c-Met-Fc fusion protein (R&D Systems, #) and the plates were incubated for two hours at room temperature. The plates were washed three times with wash buffer and blotted onto paper towels. […] Plates were read on a fluorescence plate reader and analyzed using GraphPad Prism software (GraphPad Software, San Diego, Calif.). […]
In turn, B9 yielded an IC50 above 125 nM.

B10: the IC50 is 900 nM and 551 nM.

Another assay addresses T2, biotinylated c-Met-Fc (R&D Systems, #358-MT-100/CF, 5.1 biotin per c-Met molecule) (human, UniProt P08581 25-932, biotinylated, 5.1 biotin per c-Met molecule (Pierce #21335)).
T2 construct: extracellular domain; Captured on a streptavidin (SA) chip for the BIAcore study of the IgGs; Fc part of the bought chimera not given
Briefly: SPR (BIAcore), biotinylated c-Met-Fc captured on streptavidin chip, IgG as analyte, bivalent model. As to the method: The binding properties (on-rate, off-rate and affinity) of c-Met monoclonal antibodies (IgG or Fab versions) with human c-Met extracellular domain was determined using surface plasmon resonance, or BLAcore, technology. For the binding studies with IgG, a low density (<1 ng/mm2) of c-Met-Fc (R&D Systems, #358-MT-100/CF) containing 5.1 biotin per c-Met molecule (prepared with Pierce #21335 as per manufacturer's instructions) was captured onto a SA chip precoated with Streptavidin (BIAcore Inc.). A streptavidin flow cell without adsorbed c-Met-Fc was used as a control cell for non-specificbinding. The antibody sample to be analyzed was prepared in HEPES buffer (0.15M NaCl, 10 mM HEPES, 3.4 mM EDTA, 0.005% surfactant P-20, pH 7.4) to form a set of solutions varied in concentration from 0.78 nM to 100 nM. The HEPES buffer used as the running solution was set at a flow rate of 50 ul/min. Each sample solution was injected over the two flow cells for three minutes, followed by 5 minutes of dissociation. The flow cells were then regenerated with 4.5M MgCl₂ for one minute to remove the bound antibody for the next cycle of binding study. The net sensorgrams (subtraction of sensorgrams from the negative control flow cell as well as that from the buffer blank) obtained for each set of samples were processed simultaneously in a global fitting using a bivalent binding model of the BIAevaluation software program equipped with the system. The on-rate (Kₐ), off-rate (Kd) and binding affinity (KD) were determined from the fitting with KD equal to kd/kₐ.
In turn, B6 registered a Kd of 13 nM, a koff of 0.00112 s⁻¹ and an on-rate constant (kon) of 86000 M⁻¹ s⁻¹.

For the molecule B8, the Kd came to 8.4 nM, the koff came out at 0.000759 s⁻¹ and the kon is 90600 M⁻¹ s⁻¹.

For B7, the Kd stood at 552 nM, the koff was 0.00845 s⁻¹ and the on-rate (kon) came out at 15300 M⁻¹ s⁻¹.

The target of another assay is T1, c-Met/Fc Chimera (R&D Systems, catalog …). Briefly: europium (DELFIA) ligand competition ELISA: biotinylated HGF binding to plate-coated c-Met/Fc Chimera, antibody titrated. As to the method: as §1, §2
With B5, the “IC50 (read off the curve)” value was around 0.8 nM.

On to B6, for which the “IC50 (read off the curve)” value was around 0.7 nM.

For the molecule B8, the “IC50 (read off the curve)” value was around 0.7 nM.

With B7, the “IC50 (read off the curve)” value is around 3 nM.

Values taken from patent US20040166544A1 (published 2004).
